This is an account of results in patent US7608407 (Boehringer Ingelheim, dated 2009).

The test deals with T1, GST-HDC (human histidine decarboxylase, amino acid residues 1-477, fused to GST) (human, UniProt P19113 1-477).
T1 sequence: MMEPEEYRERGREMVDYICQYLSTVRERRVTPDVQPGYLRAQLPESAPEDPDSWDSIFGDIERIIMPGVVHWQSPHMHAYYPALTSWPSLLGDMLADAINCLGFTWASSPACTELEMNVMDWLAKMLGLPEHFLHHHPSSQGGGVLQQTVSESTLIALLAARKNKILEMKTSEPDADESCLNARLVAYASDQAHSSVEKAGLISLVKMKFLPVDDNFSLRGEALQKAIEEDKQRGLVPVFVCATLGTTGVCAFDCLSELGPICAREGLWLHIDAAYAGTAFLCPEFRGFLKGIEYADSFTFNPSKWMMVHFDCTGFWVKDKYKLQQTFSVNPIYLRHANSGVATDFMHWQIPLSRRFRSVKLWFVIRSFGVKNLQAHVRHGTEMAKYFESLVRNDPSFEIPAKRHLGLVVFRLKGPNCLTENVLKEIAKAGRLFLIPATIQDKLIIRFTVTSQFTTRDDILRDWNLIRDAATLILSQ
The test is described as follows: cell-based or functional assay.

For the molecule HF [dipeptide histidine-phenylalanine], the “IC50 (inhibition of HDC enzyme activity, standard fluorescence polarization HDC assay)” value was found to be 228 µM.
